B1: Fkbp41 (natural protein, S. pombe, UniProt Q10175 1-362, looked up)
chain: MSKEETLYSVKVDQERVPLFDEDFYKGFRSELSVRFTMAALDPRAKSNDAVTVNVITRLEHPEEDGEESDEELFQEEKFTLCTLKKGSVYQQPIDIIFSPGEEVFFERVGGDIPVYLSGTCIITNIPEEEDSSDLENDFLYGADEFSSDEEEMDDISVTSSEEEEEENGARIEELNSDEEDAEQAEEEILEKPVPKDEVAEKHSKDKLKKEEKEKKTAVDVSDSVNGKKRKTEPAGEGEQTEKKSKSTKTYPKQVLEGNVTVQDKVKGDGPAAKRKKRVSMRYIGRLTNGKVFDKNITGKPFTFNLGLEEVIKGWDVGIVGMQVGGERTIHIPAAMAYGSKRLPGIPANSDLVFDVKLLAVN
notes: Fkbp41, S. pombe, SPAC27F1.06c; cloned into a pETDuet vector behind 6xHis-SUMO and an HRV-3C site; also called nucleophosmin-like protein Fkbp41; SPAC27F1.06c; source: E. coli Rosetta (DE3), purified (Ni Sepharose, tag removed, Q ion exchange, at times SEC); not shown: 6xHis, N-terminal, cleaved; SUMO, N-terminal, cleaved

Data set [1] concerns the molecule itself. As to the kind of experiment: mass photometry + SEC; purified Fkbp39 and Fkbp41, oligomeric state; SEC on Superdex 200 Increase 10/300 GL.
Data set [2] has as its target B1. In words: pull-down; 'in vitro co-immunoprecipitation': 12 μg each of 6xHis-SUMO-Fkbp39 and Fkbp41, 45 min at 4 °C in 30 mM HEPES-Na pH 7.5-8, 150 mM NaCl, 20 mM imidazole; Ni Sepharose resin, imidazole elution, SDS-PAGE. Particulars: both partners purified.

Consider B1, for which the “stoichiometry N” value in data set [1] was determined as 2.

B2: Fkbp39 (natural protein, S. pombe, UniProt O74191 1-361, looked up)
chain: MSLPIAVYSLSVKGKDVPAVEESTDASIHLTMASIDAGEKSNKPTTLLVKVRPRIPVEDEDDEELDEQMQELLEESQREFVLCTLKPGSLYQQPLNLTITPGDEVFFSASGDATIHLSGNFLVDEEDEEEEESDEDYDLSPTEEDLVETVSGDEESEEESESEDNSASEEDELDSAPAKKAQVKKKRTKDESEQEEAASPKKNNTKKQKVEGTPVKEKKVAFAEKLEQGPTGPAAKKEKQQASSNAPSSPKTRTLKGGVVVTDVKTGSGASATNGKKVEMRYIGKLENGKVFDKNTKGKPFAFILGRGEVIRGWDVGVAGMQEGGERKITIPAPMAYGNQSIPGIPKNSTLVFEVKLVRVH
notes: Fkbp39, S. pombe, SPBC1347.02; cloned into a pETDuet vector behind 6xHis-SUMO and an HRV-3C site; also called nucleophosmin-like protein Fkbp39; SPBC1347.02; source: E. coli Rosetta, purified (Ni Sepharose, tag removed, SP ion exchange, at times SEC); not shown: 6xHis, N-terminal, cleaved; SUMO, N-terminal, cleaved
For B2, in data set [1], the “stoichiometry N” value came out at 5.

B3: 6xHis-SUMO-Fkbp39 (natural protein, S. pombe, UniProt O74191 1-361, looked up)
chain: MSLPIAVYSLSVKGKDVPAVEESTDASIHLTMASIDAGEKSNKPTTLLVKVRPRIPVEDEDDEELDEQMQELLEESQREFVLCTLKPGSLYQQPLNLTITPGDEVFFSASGDATIHLSGNFLVDEEDEEEEESDEDYDLSPTEEDLVETVSGDEESEEESESEDNSASEEDELDSAPAKKAQVKKKRTKDESEQEEAASPKKNNTKKQKVEGTPVKEKKVAFAEKLEQGPTGPAAKKEKQQASSNAPSSPKTRTLKGGVVVTDVKTGSGASATNGKKVEMRYIGKLENGKVFDKNTKGKPFAFILGRGEVIRGWDVGVAGMQEGGERKITIPAPMAYGNQSIPGIPKNSTLVFEVKLVRVH
notes: Fkbp39, S. pombe, SPBC1347.02; pETDuet construct with 6xHis-SUMO and an HRV-3C site, tag not removed; source: E. coli Rosetta (Fkbp39 constructs), purified; used as 6xHis-SUMO-Fkbp39; not shown: 6xHis, N-terminal, kept; SUMO, N-terminal, kept
Regarding B3, the binding result in data set [2] is recorded as “binds”.

The values above are taken from article PMC9949351, “Chromatin localization of nucleophosmin organizes ribosome biogenesis” (Molecular cell, 2022).
